The values below come from the supplement of paper PMC10724198.

± gives the standard deviation of the averaged measurements.
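Further: PSI is a weighted mean of sequencing reads over stability bins, variants kept only with over 10 reads, mCherry proximal and sfGFP distal, peptide attached via GGGS linker.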

This data set has as its system Saccharomyces cerevisiae. Put plainly: protein stability index of tFT-peptide fusion (C-terminal peptide) (PSI (0-1 scale)); higher = more stable (slower turnover). The settings on record: genetic background: wild type; temperature: 30 C. On the procedure: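 Multiplexed protein stability (MPS) profiling in S. cerevisiae. Random 12-aa peptides (tFT-X12 library) are fused to the C-terminus of a sfGFP-mCherry tandem fluorescent timer, after mCherry and a GGGS linker. Cells are FACS-sorted into 8 mCherry/sfGFP bins and deep-sequenced. The protein stability index (PSI) is the read-weighted bin average, scaled from 0 (unstable) to 1 (stable). Only peptides with >10 reads are reported; cells were grown at 30 °C in SC-His with glucose.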
In turn, GLGTAFGAADTV displayed a protein stability index of 0.693 ± 0.012.
Regarding GLGVCSPRFLVL, the protein stability index stood at 0.763 ± 0.15.
GLGVWDLRLGWG came in with a protein stability index of 0.701 ± 0.011.
On to GLHSSNQLGALY, for which the protein stability index stood at 0.677 ± 0.036.
The sequence GLLCSKTCCAGV gave a protein stability index of 0.6453 ± 0.0024.
GLLDGEILKRRI showed a protein stability index of 0.6978 ± 0.0053.
Turning to GLLEGGLWVWGL, the protein stability index worked out at 0.692 ± 0.04.
In turn, GLLQRCGAWRGS registered a protein stability index of 0.656 ± 0.04.
In turn, GLMAIKVNLNHS displayed a protein stability index of 0.619 ± 0.032.
For the sequence GLPFPPGPIFVS, the protein stability index amounted to 0.743 ± 0.19.
Next, GLPPPPQPLPHA: 0.726 ± 0.14; GLPPPSPPVPLL: 0.683 ± 0.043.
GLRPPGLRLGSL returned a protein stability index of 0.6475 ± 0.0047.
The sequence GLRPPPLRPAPP showed a protein stability index of 0.704 ± 0.08.
Sequence GLRSDIGQVTHP gave a protein stability index of 0.635 ± 0.066.
In the case of GLSEPWVFFLRC it was 0.64 ± 0.012; in that of GLSRAWVAGVRG, 0.735 ± 0.037; in that of GLVCSHLRTAGS, 0.6857 ± 0.0063.
In the case of GLVRWRWGDRPS it was 0.56 ± 0.066; in that of GLVSALSGLLTP, 0.651 ± 0.089.
Next, GLWQRVGIVIGC: 0.58 ± 0.017; GLYRQRVCLRSG: 0.6097 ± 0.0036; GMAKGWHCESSS: 0.716 ± 0.041.
For the sequence GMLGVIGGKVGR, the protein stability index worked out at 0.699 ± 0.052.
Sequence GMQVRNTKERRG had a protein stability index of 0.714 ± 0.02.
Turning to GMRFDTERKWLL, the protein stability index is 0.695 ± 0.084.
In turn, GMSFALSVYFFP had a protein stability index of 0.601 ± 0.01.
In the case of GMVRVRSIATHG it was 0.597 ± 0.034; in that of GNFAGLTRDRGP, 0.674 ± 0.052; in that of GNFIGSWLHTVD, 0.811 ± 0.11.
With GNGEGRKPPRPP, the protein stability index was 0.619 ± 0.014.
Next, GNKKRDSDKIKE: 0.6054 ± 0.0028; GNLFIGLLHITC: 0.5753 ± 0.0034; GNLVSFCTKKGA: 0.722 ± 0.014.
In the case of GNPDFQVTKNPY it was 0.67 ± 0.078; in that of GNQAILGRYLSV, 0.623 ± 0.051.
In the case of GNVAMRKNIIGL it was 0.674 ± 0.057; in that of GNVNCNLRRYYI, 0.766 ± 0.086.
Consider GPAAPAGNPETV, for which the protein stability index was 0.6694 ± 0.0043.
As to GPCPCAPRSPSY, the protein stability index turned out to be 0.6705 ± 0.0033.
For GPFLFPGASCGL, the protein stability index was 0.717 ± 0.011.
Next, GPFRGRCFPFCI: 0.667 ± 0.037; GPGCVFFLACRG: 0.559 ± 0.024; GPGFGEFVWSLW: 0.692 ± 0.044.
Regarding GPGPRLSCLVPT, the protein stability index amounted to 0.73 ± 0.035.
Next, GPGTYGASLSGR: 0.65 ± 0.053; GPKGVTRCGATR: 0.721 ± 0.12; GPKPHREKKSIN: 0.73 ± 0.045.
In the case of GPKSPLVCSPPP it was 0.657 ± 0.13; in that of GPLATACPPALT, 0.701 ± 0.046; in that of GPLPPPFSALPP, 0.703 ± 0.024.
In the case of GPLRFSLPPPPS it was 0.69 ± 0.017.
Sequence GPRPHVLPLAYF yielded a protein stability index of 0.675 ± 0.024.
GPRTPPKPRQVP: the protein stability index was 0.616 ± 0.024.
In the case of GPSCSGLHAPTS it was 0.831 ± 0.1.
Next, GPSGGSGGGGVG: 0.597 ± 0.049; GPSLLLLSVLSE: 0.6225 ± 0.003.
In the case of GPTSTETYKEVG it was 0.671 ± 0.0011; in that of GPVLELWLGRSR, 0.775 ± 0.04; in that of GPVQSISMTVGH, 0.6548 ± 0.0025.
The sequence GPVSVTFGGTYC had a protein stability index of 0.678 ± 0.046.
For the sequence GPWGGRLSWAPG, the protein stability index worked out at 0.636 ± 0.0092.
Regarding GQMSKMRDRLIA, the protein stability index was 0.652 ± 0.0094.
In the case of GQPGDCWRVCPR it was 0.6851 ± 0.0027.
